Measurements taken from the supplement of paper PMC12042874.
± gives the uncertainty stated by the source.

Assay: amyloid nucleation score (Sup35N fusion, yeast selection) (log enrichment); library NNK3; higher = more nucleation; inactive = no reads after selection
Method in brief: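 Peptides of 20 random codons, each fused to Sup35N, were expressed in psi-negative yeast. Cells were induced with 100 μM copper sulfate for 24 hours and grown 7 days at 30°C on medium lacking adenine and uracil, and plasmid inserts before and after selection were Illumina-sequenced. Nucleation scores are DiMSum log enrichments of output over input reads, centred on the mode score of non-aggregating sequences, and sequences under 100 input reads were excluded.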

Row | Substance | amyloid nucleation score
1 | MKYAFRFCRPSVRWVYDPRL | inactive
2 | MWLKPCRGKIKMRGYFSLNG | inactive
3 | CTAILAVMSIGNFFNRLDLN | inactive
4 | GDSIRSWNRGAVEIA | -0.377 ± 1.5
5 | GSRVLKAWGSLSLILTSYDG | inactive
6 | ECYCWFVNWLSFCKNGYSGM | inactive
7 | CYQVWPARLSILHARLLGGR | inactive
8 | GTQLFFYMMCARFKDNL | 0.195 ± 0.38
9 | SYVCIIYGNDGSLSRCKDDL | inactive
10 | WMYRKTSNRICCLPRESVNP | inactive
11 | CCAYFVGLGCVQLTKWFSLL | inactive
12 | MYNSTLSWRL | inactive
13 | WYPGMCFESVDTMDRHLHND | inactive
14 | FWGVSDGFMC | -0.141 ± 0.96
15 | GRGNAGPCTSNRWDDFWEKK | inactive
16 | FRNRLGSTDNQWV | inactive
17 | HGAVRQLNRGRKWSSLETVG | 0.85 ± 0.19
18 | WSRHSTMGTRPEKQVLWPAG | inactive
19 | KQCGTIG | inactive
20 | HLSYKSQLS | inactive
21 | RMCGSCYLCYCRERRGYTAF | inactive
22 | IGRISMAIMWIGVGVA | inactive
23 | DNHVVKVQL | inactive
24 | IVLIKSILDANEEGT | inactive
25 | YSCAKRTRVGTRSSRKVSLA | inactive
26 | GEILSGITTLGVYYSYVWHL | inactive
27 | LPIKMGMLLSICDLLG | inactive

Row | Substance | amyloid nucleation score
28 | MSSSIILWNFCNMDRCSLLV | -0.084 ± 0.49
29 | HPESCPGLGSLSGEPR | inactive
30 | FKSVIESTLMIETDY | inactive
31 | SFMKQIFSYARLVRISKSVG | inactive
32 | GVLSCLSIMIAISGLPGSEK | 0.801 ± 0.2
33 | PCILPKRTRIIVR | inactive
34 | YYLVYPRNIIMYKGNNFLKP | 2.24 ± 0.063
35 | NSNDRK | inactive
36 | YGCGIQGLVQWTCDTGRMHC | inactive
37 | EFMAGNDSRIQCSRIRGCYG | inactive
38 | NCYRRTLHSSWREWIWPIGC | -0.062 ± 0.82
39 | SSKCWSTSCFFKGKSLSSLG | inactive
40 | GPQYWCVTRNNYYGSFYEVS | 0.407 ± 0.18
41 | NLSNIFQSNMYVTRSVNGVR | 1.68 ± 0.084
42 | SFFRMSFC | 2.91 ± 0.06
43 | FSGRMVSRIDIIYRRKSVMS | 1.28 ± 0.076
44 | CMQSEHTTSAYYRLDCS | -0.276 ± 0.41
45 | LVMLMYVVPGFVGGDFTGDF | inactive
46 | YFHGFLFYSE | inactive
47 | LYDSIVHESKRLLATDRIRF | inactive
48 | SLFKEWAWA | inactive
49 | WMPDPRVCQKMFVMCKHSP | inactive
50 | SCFRFKTQLTIGLVEEISCA | inactive
51 | GHSHCMNSVLHSNMSLNTVI | inactive
52 | KIMCGGTVSERETRTLHQSG | inactive
53 | LASRSHKHINATLAHLNPLL | inactive
54 | ESFPFVSASDCSCSNR | inactive

Row | Substance | amyloid nucleation score
55 | TCRICTFGVWDFCRTDERRH | 2.24 ± 0.069
56 | IIKDLPVCVDERASYAEVMS | inactive
57 | DYESCEIRVLETEWIGVGT | inactive
58 | CRNCR | inactive
59 | AYNLSLNYDGHSSYWYFHTT | -0.134 ± 0.38
60 | FFCGFRKTAASHFLFLVKDW | inactive
61 | GVEMHVFWDLA | inactive
62 | GVCGVLGFYFDPIITSL | inactive
63 | SNLNWPWKYPNMWFLLS | inactive
64 | LFYSRGHLSGLGLGVMAPFI | inactive
65 | ALMRVSSLCHLSGKVCLTLA | inactive
66 | FIYIRYPHRRS | inactive
67 | LRRYVARNRRSYFTESLPRA | -0.123 ± 1.4
68 | GLEFRARRKCRTKGELHDK | inactive
69 | ISIFSIRNMVYNLQVRLVLE | inactive
70 | SECYKWRIFCNILNR | 2.36 ± 0.058
71 | LKLRSRITNINILDVRYWIC | inactive
72 | MCSPYFMSTSNTIFQSTRYG | 1.12 ± 0.12
73 | RQHGMLCSRSTRMVLFKS | inactive
74 | VLKSIGV | inactive
75 | SVSVLHSYYLIYVCRDFFMK | 0.865 ± 0.12
76 | FCVEIMSLSVRGCWGYSFGT | inactive
77 | LAWVLMHSAKLGLKKRQAWG | inactive
78 | YFLQTEAEVSFEQEVVAISL | inactive
79 | SFYSNFRESRDLSSYTLNIS | inactive
